The record followed here is article PMC6345565.

Read-outs that look alike come from different tables or passages of the source.

Assay [1] concerns the target TAC-YFP-DAT C24 (C-terminus of the dopamine transporter on TAC-YFP) (not stated | not stated (human DAT is named for the β2-DAT8 constructs)). In words: supported cell membrane sheets (SCMS), confocal microscopy, competition binding; 100 nM labelled SNAP-PICK1 premixed with increasing unlabelled PICK1 WT, 120 min, on sheets expressing TAC-YFP-DAT; half maximal binding reported as Ki*.

Assay [2] has as its target Oregon Green-labeled DAT C13 peptide (not stated (human DAT is named for the β2-DAT8 constructs)). In words: fluorescence polarisation; saturation: PICK1 diluted to various concentrations, 20 nM OrG DAT C13; 50 mM Tris pH 7.4, 125 mM NaCl, 1 mM DTT, 0.01% Triton X-100; 30 min on ice. Background: Polarisation of emitted light reports the rotation of a fluorescent probe.
For assay [3], the target named is FLAG-β2 DAT8 LKI (rat (Rattus norvegicus) | human). In words: supported cell membrane sheets (SCMS), confocal microscopy, saturation binding of exchanged dimers; monomers purified in 0.1% TX-100, mixed and diluted at least 100-times to form WT/WT or WT/A87L dimers (A87L in 4 times excess); sheets expressing LKV or LKI; read in the WT and the A87L channel; apparent (Kd*).

For assay [4] the target is unchanged. In words: supported cell membrane sheets (SCMS), confocal microscopy, dissociation time course; PICK1 dissociation from sheets expressing LKV (two-state fit) or LKI (one-state fit).
Assay [5] has as its target TAC-YFP-DAT C24 (C-terminus of the dopamine transporter on TAC-YFP) (not stated | not stated (human DAT is named for the β2-DAT8 constructs)). In words: supported cell membrane sheets (SCMS), confocal microscopy, association time course; PICK1 binding as a function of incubation time; PICK1 100 nM for LKV and LKI.
Assay [6] has as its target FLAG-β2 DAT8 LKI (rat (Rattus norvegicus) | human). The description is as above.
Assay [7] concerns the target TAC-YFP-DAT C24 (C-terminus of the dopamine transporter on TAC-YFP) (not stated | not stated (human DAT is named for the β2-DAT8 constructs)). In words: supported cell membrane sheets (SCMS), confocal microscopy, saturation binding; labelled PICK1 in sheet buffer (120 mM KCl, 2 mM MgCl2, 0.1 mM CaCl2, 10 mM HEPES, 30 mM glucose pH 7.35) overlaid for 2 h on ice on sheets from transfected HEK293 GripTite cells; PICK1 signal divided by receptor signal; apparent affinity (Kd*), headed EC50 in the tables.

Assay [8] has as its target FLAG-β2 DAT8 LKA (rat (Rattus norvegicus) | human). Described as above.
The target of assay [9] is FLAG-β2 DAT8 LKI (rat (Rattus norvegicus) | human). The description is as above.
Assay [10] has as its target TAC-YFP-GluA2 (24 C-terminal residues of GluA2 on the IL-2 receptor α-subunit fused to YFP) (not stated | rat (Rattus norvegicus)). The description is as above.
Assay [11] concerns the target FLAG-β2 DAT8 LKI (rat (Rattus norvegicus) | human). In words: supported cell membrane sheets (SCMS), confocal microscopy, association time course; PICK1 binding as a function of incubation time; PICK1 100 nM for LKV and LKI. This is another data set of the same source.

By IC50 is commonly meant the point on the concentration scale where inhibition reaches its midpoint. A high value points to weaker potency. One may read the Kd as the constant that tells how readily two partners part at equilibrium. Lower therefore signals higher affinity. As a reminder, the EC50 is the concentration that produces a half-maximal response.

“PICK1 WT without SNAP-tag (from UniProt Q9EP80 1-416) (natural protein)”: the 50% inhibitory concentration (IC50) in assay [1] stood at 29 nM. Besides, the Kd in assay [2] turned out to be 9000 nM.

Regarding “PICK1 WT/A87L heterodimer (from UniProt Q9EP80 1-416; Q9EP80 1-416) (complex)”, the EC50 in assay [3] came to 123 nM.

In assay [4], “SNAP-PICK1 WT (PICK1 with an N-terminal SNAP-tag, fluorescently labelled) (from UniProt Q9EP80 1-416) (natural protein)” came in with a dissociation half-life of 7.18 h. Besides, the values for the time to half maximum binding in assay [5], in assay [6] and in assay [11] were 19 min, 14 min and 11 min, respectively. The EC50 was determined as 47 nM in assay [7], 59 nM in [8], 29 nM in assay [9] and 73 nM in [10]. Further, the Kd* (apparent affinity) in assay [9] is 39 nM.
